System: TBP2
Assay: pull-down
Settings: negative control, biotin-dUTP/dATP fill-in, 20 mM Tris pH 8.0, 1 mM EDTA, 5 mM DTT, 5 mM MgCl2, 100 mM KCl, 0.125% NP40, protease inhibitors, overnight at 4 C, washes 100-200 mM KCl (up to 400 mM tested)

| Sequence | binding signal (residual affinity) [% recovered] | binding signal (very low affinity, 5-methylcytosine at CpG (SssI), both strands) [% recovered] |
| --- | --- | --- |
| GATCCCGGAGTTAA / GATCTTAACTCCGG [unmethylated concatamerized GATC-CCGG-AGTTAA probe (SssI-)] | 4 |  |
| GATCCCGGAGTTAA / GATCTTAACTCCGG [methylated concatamerized GATC-CCGG-AGTTAA probe (SssI+)] |  | < 1 |

From paper PMC3169474
